Assay: soluble on expression in E. coli; label from the status in PepcDB or PDB records

Sequence	soluble on expression in E. coli
MSDTPKYTQDQVIAIKNRILEALETVIDPELGIDVVNLGLIYEIRFNDNGYTEIDMTLTTMGCPLADLLTDYIHDALQDVPEVTKTEVKLVWYPAWTVDKMSRYARIALGIR	not soluble
MSDVDVFVIDDDFDPLADLSLDDGERDDAEADYLPPIPDADKSVVPPVVPLSATERIEKLLAGIPGQQFRLLHAVEFCTEPKTMDEAVADLDAAYPNTTSVYGSAQVVQLLERDGALERIVDEDAAHAAAGDAADTPAEDEGFISVTPAPPCRYRATQAGLDAVAAHVNEGLVAERISEDERYLPIFQRVLEMCAREGGCPTKELDQAVDGDPLCQEPRRFCGFFRGKLEETGAIEWRDAWTITDLGRSVLASGLFAAASPSER	not soluble
MSEDADLKIFMDFLVEKTKDAFQPMIAVQVFREYLNEKSHLHDYHYKRFCCDLAPNMNEWNNYSIEARIRLMYALGGKVESDFLERIETHGTVELNKKRKITKYTSNDGILSLQDNRVHFTRFMDFLIQKTKYAVEPMNFNQVLEEFCRLEPDCRHYGVYYVRFHHKLAPNMDALNNYNIYDRIRLMFVLNGKVSGDFFKTIKTHGTVELDRKKKITKYVSNDGKLKLGGNIISDTRLMDFLIQKTRHSVEPMQATNLIFKEFSERPSRILDKMYQLRFYQKLAPNMNEWNRYSIEQRIRLMFVLKGKVADDFLKTIPILSMAKRIMICRIETHGTVELDEKRRIRKYTSNDGKLSLKKPLTDDTSCPTNIRFMDFLIQNTKDGAESIRLIYNEFALLEGNVLSASTYSSRFCKKLAPKMSQWSNYRIEDRIRMMFALKGKVESDFLAQMIQSGAVQLDENYRIVRYTSNNGKVELSEKRSGVKRRSSTKSSKTLGKRRQVIEKELSDLDEPEFVGIMHGYPKQEPVYEEIINQDMRYNNEDPHIPPEIEQFPIQAVHLEEPKFDPISSMNIGRGTLAQRFGTTSSESDGISVHNFLISLELILTSLESDTLIDLMREIKELRNRTNDEILPPDLVIPALQTCFMGITRKFRPEVSAPSKSAGECLRILKYSLLWLQSPLLYDLQKRVQEEIENCGADGKVIPIADIQQGIRNILFAVSI	not soluble
MSEDDPRPLHIRRQGLDPADELLAAGALTRVTIGSGADAETHWMATAHAVVRQVMGDHQQFSTRRRWDPRDEIGGKGIFRPRELVGNLMDYDPPEHTRLRRKLTPGFTLRKMQRMAPYIEQIVNDRLDEMERAGSPADLIAFVADKVPGAVLCELVGVPRDDRDMFMKLCHGHLDASLSQKRRAALGDKFSRYLLAMIARERKEPGEGMIGAVVAEYGDDATDEELRGFCVQVMLAGDDNISGMIGLGVLAMLRHPEQIDAFRGDEQSAQRAVDELIRYLTVPYSPTPRIAREDLTLAGQEIKKGDSVICSLPAANRDPALAPDVDRLDVTREPIPHVAFGHGVHHCLGAALARLELRTVFTELWRRFPALRLADPAQDTEFRLTTPAYGLTELMVAW	soluble
MSEDIFDAIIVGAGLAGSVAALVLAREGAQVLVIERGNSAGAKNVTGGRLYAHSLERIIPGFADQAPIERMITHEKLAFMTDNGAMTIDYCNGEDASASQVSYSVLRSKFDAWLMEQAEEAGAQLITGIRVDNVVQRDGKVVGVEADGDILEAKVVILADGVNSLLAEKLGMTKRVEASHVAVGVKELIELPKLVIEDRFQLQGNEGAACLFAGAPTDGLMGGGFLYTNETTLSLGLVCGLHHLKDAKKSVPQMLEDFKQHPAVAPLIAGGKLVEYAAHVVPEAGMNMQPELVGDGVLIAGDAAGMCMNLGFTIRGMDLAISAGEAAAKTVLSAMKRDDFSKQSLGEYRQHLDEGPMRDMRMYQKLPAFLDNPRMFTAYPEMAVNIARDLFTVDGSAPVPMRKKILRHAKKVGFINLMKDGLKGVTVL	not soluble
MSEDVSKNLSETLFVKHKQAKETSALTQYMPTSKKILDDREQQEDRAWYRHLRRLQWAWQGLSPIEMEGVLSRIASSTHSRTHDDWLDTVMGYHSGNWTFEWIKLGMEHQRRANDLKGEDAADELFTASLCFSIAGYPHLKNDNLALQAQVLANKAYSEGAEKTQYTIKQIEVPYQKRKIIANLHLPRTDKQLPVVMVSAGLDSLQTDMWRLFRNHFAPKDIAMLTVDMPSVGHSSHWPLTEDSSCLHQAVLNELYSIPYVDHHKVGLVGFRFGGNAMVRLSFLEQEKIKACVALGAPVHDLFTSPKKLQKMPKMYLDMLASRLGKSAVDINSMAGQMMAWSLKVQGFLSSRKTKVPILALSLEGDPVSPYSDNQLVALFSHYGQAKKISSKTITKGYEQSLDLAIKWLEDELLR	not soluble
